Assay results taken from patent US20200024330A1.

Experiments:
Assay in all cases: cell-based or functional assay
[1] = molecular target: HIV-1 Env of isolate MGRM-F1-022 (HIV-1)
[2] = molecular target: HIV-1 CAAN.A2 Env (pseudovirus) (HIV-1)
[3] = molecular target: HIV-1 MGRM-Chronic-B-011 Env (pseudovirus) (HIV-1)
[4] = molecular target: HIV-1 Env of isolate MG RM-D-020 (subtype D) (HIV-1)
[5] = molecular target: HIV-1 Env of isolate MGRM-C-019 (pseudovirus) (HIV-1 isolate MGRM-C-019, subtype C)
[6] = molecular target: HIV-1 Env of isolate MGRM-C-013 (pseudovirus) (HIV-1 isolate MGRM-C-013, subtype C)
[7] = molecular target: HIV-1 Env of isolate 92UG001 (subtype D) (HIV-1)
[8] = molecular target: HIV-1 JRCSF envelope glycoprotein (Env) on pseudovirus (HIV-1) (UniProt P20871)
[9] = molecular target: HIV-1 JR-CSF Env D477A (HIV-1 (isolate JR-CSF)) (UniProt P20871)
[10] = molecular target: HIV-1 JR-CSF Env N160K (HIV-1 (isolate JR-CSF)) (UniProt P20871)
[11] = molecular target: HIV-1 Env of isolate MGRM-G-028 (HIV-1)
[12] = molecular target: HIV-1 JR-CSF Env R476A (HIV-1 (isolate JR-CSF)) (UniProt P20871)
[13] = molecular target: HIV-1 JR-CSF Env L125A (HIV-1 (isolate JR-CSF)) (UniProt P20871)
[14] = molecular target: HIV-1 Env of isolate MGRM-AE-003 (HIV-1)
[15] = molecular target: HIV-1 Env of isolate MGRM-G-017 (subtype G) (HIV-1)
[16] = molecular target: HIV-1 Env of isolate MGRM-G-009 (subtype G) (HIV-1)
[17] = molecular target: HIV-1 Env of isolate MGRM-G-017 (clade G pseudovirus) (HIV-1)
[18] = molecular target: HIV-1 Env of isolate MGRM-D-012 (clade D) (HIV-1)
[19] = molecular target: HIV-1 MGRM-F1-006 Env (pseudovirus) (HIV-1)
[20] = molecular target: HIV-1 Env of isolate MGRM-G-019 (clade G pseudovirus) (HIV-1)
[21] = molecular target: HIV-1 Env of isolate MGRM-G-011 (clade G pseudovirus) (HIV-1)
[22] = molecular target: HIV-1 Env of isolate 92RW008 (HIV-1)
[23] = molecular target: HIV-1 Env of pseudovirus 93TH305, clade B (HIV-1)
[24] = molecular target: HIV-1 MGRM-A-003 envelope glycoprotein (Env) (HIV-1)
[25] = molecular target: HIV-1 IAVI-C18 envelope protein (Env) on pseudovirus (HIV-1)
[26] = molecular target: HIV-1 Env of isolate 92TH021 (HIV-1)
[27] = molecular target: HIV-1 Env of isolate MGRM-G-028 (subtype G) (HIV-1)
[28] = molecular target: HIV-1 92RW020 envelope glycoprotein (Env) (HIV-1)
[29] = molecular target: HIV-1 Env of isolate MGRM-G-004 (subtype G) (HIV-1)
[30] = molecular target: HIV-1 Env of isolate 92UG001 (HIV-1)
[31] = molecular target: HIV-1 Env of isolate 92WR024 (HIV-1)
[32] = molecular target: HIV-1 Env of isolate MGRM-AG-001 (CRF_AG), on pseudovirus (HIV-1)
[33] = molecular target: HIV-1 Env of isolate MGRM-F1-012 (subtype F), on pseudovirus (HIV-1)
[34] = molecular target: HIV-1 Env of isolate MGRM-AE-008 (CRF01_AE), on pseudovirus (HIV-1)
[35] = molecular target: HIV-1 Env of isolate MGRM-F1-020 (subtype F), on pseudovirus (HIV-1)
[36] = molecular target: HIV-1 Env of isolate MGRM-C-013 (HIV-1)
[37] = molecular target: HIV-1 Env of isolate THR0.18 (HIV-1)
[38] = molecular target: HIV-1 Env of isolate MG RM-A-006 (HIV-1)

Sequence of 5345_I01 (PGT-137) (antibody) (VH): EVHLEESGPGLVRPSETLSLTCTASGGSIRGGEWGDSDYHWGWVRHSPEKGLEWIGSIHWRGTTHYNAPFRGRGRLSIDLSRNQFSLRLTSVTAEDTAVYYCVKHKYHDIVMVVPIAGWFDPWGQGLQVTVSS
Sequence of 5345_I01 (PGT-137) (antibody) (VL): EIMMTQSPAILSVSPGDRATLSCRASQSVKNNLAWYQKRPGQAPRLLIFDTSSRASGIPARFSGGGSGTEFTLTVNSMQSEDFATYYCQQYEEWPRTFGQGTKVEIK
Sequence of PGT-142 (4995_E20) (antibody) (VH): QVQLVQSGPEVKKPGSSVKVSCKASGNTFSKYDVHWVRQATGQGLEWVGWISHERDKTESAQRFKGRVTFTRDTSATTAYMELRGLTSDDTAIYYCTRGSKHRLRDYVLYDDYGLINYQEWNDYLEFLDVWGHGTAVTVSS
Sequence of PGT-142 (4995_E20) (antibody) (VL): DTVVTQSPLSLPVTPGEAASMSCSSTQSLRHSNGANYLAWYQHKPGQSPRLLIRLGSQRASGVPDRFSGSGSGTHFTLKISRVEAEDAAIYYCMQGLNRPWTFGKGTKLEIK

4838_L06 (PGT-121) (antibody) gave an IC50 [1] of 0.104 mg/L, an IC50, pseudovirus neutralization [2] of 0.011 mg/L and an IC50, pseudovirus neutralization [3] greater than 50 mg/L. The IC50 (µg/mL), pseudovirus neutralization [4] was 0.01 µg/mL, the IC50 (µg/mL) neutralization [5] was greater than 50 µg/mL and the IC50 (µg/mL) neutralization [6] was 7.23 µg/mL. For the same substance, the IC50 (µg/mL), pseudovirus neutralization [7] was greater than 50 µg/mL.

For 4858_P08 (PGT-123) (antibody), the IC50 [1] was 0.075 mg/L, the IC50, pseudovirus neutralization [2] was 0.015 mg/L and the IC50, pseudovirus neutralization [3] was greater than 50 mg/L. For the same substance, the IC50 (µg/mL), pseudovirus neutralization [4] was 0.018 µg/mL, the IC50 (ug/ml), neutralizing activity [8] was 0.0423 µg/mL and the IC50, pseudovirus neutralization [8] was 0.0423 mg/L. It also gave an IC80, pseudovirus neutralization [8] of 0.143 mg/L, an IC90 (pseudovirus neutralization) [8] of 0.289 mg/L and an IC95, pseudovirus neutralization [8] of 0.547 mg/L. The Fold IC50 increase relative to wild-type [9] was 2.3 fold, the Fold IC50 increase relative to wild-type [10] was 1 fold and the IC50 (µg/mL) neutralization [5] was greater than 50 µg/mL. For the same substance, the IC50, pseudovirus neutralization [11] was 0.008 mg/L, the IC50 (µg/mL) neutralization [6] was 14.9 µg/mL and the IC50 (µg/mL), pseudovirus neutralization [7] was greater than 50 µg/mL. The Fold IC50 increase relative to wild-type [12] was 2 fold and the Fold IC50 increase relative to wild-type [13] was 2.5 fold.

Substance 5145_B14 (PGT-127) (antibody) has an IC50 [1] greater than 50 mg/L, an IC50, pseudovirus neutralization [2] of 0.371 mg/L and an IC50, pseudovirus neutralization [3] of 0.297 mg/L. The IC50 (µg/mL), pseudovirus neutralization [4] was 0.015 µg/mL, the Fold IC50 increase relative to wild-type [9] was 1.7 fold and the Fold IC50 increase relative to wild-type [10] was 0.8 fold. It also gave an IC50 (µg/mL) neutralization [5] of 0.017 µg/mL, an IC50, pseudovirus neutralization [11] of 0.032 mg/L and an IC50 (µg/mL) neutralization [6] greater than 50 µg/mL. It also gave an IC50 (µg/mL), pseudovirus neutralization [7] greater than 50 µg/mL, a Fold IC50 increase relative to wild-type [12] of 1.2 fold and a Fold IC50 increase relative to wild-type [13] of 1.4 fold.

In the case of 1496_C09 (PG9) (TCN-109) (antibody), the IC50 (µg/mL), pseudovirus neutralization [14] is reported as 0.044 µg/mL, the neutralization IC50 [15] is reported as 0.104 mg/L and the neutralization IC50 [16] is reported as 10.7 mg/L. For the same substance, the IC50 (µg/ml), pseudovirus neutralization [17] was 0.03 µg/mL, the IC50 (µg/ml), pseudovirus neutralization [18] was 9.31 µg/mL and the IC50 (µg/ml), pseudovirus neutralization [19] was 1.45 µg/mL. The IC50 (µg/ml), pseudovirus neutralization [20] was 0.67 µg/mL, the IC50 (µg/ml), pseudovirus neutralization [21] was 0.19 µg/mL and the IC50 [22] was 0.006 mg/L. It also gave an IC50 (µg/ml), pseudovirus neutralization [23] of 2.08 µg/mL, an IC50 (ug/ml), neutralizing activity [8] of 0.0048 µg/mL and an IC50 neutralization [8] of 0.0048 mg/L. The IC80, neutralization [8] was 0.0181 mg/L, the IC90, neutralization [8] was 0.0391 mg/L and the IC95, neutralization [8] was 0.0798 mg/L. It also gave an IC50 (µg/ml), pseudovirus neutralization [24] of 0.65 µg/mL, a neutralization IC50 [25] of 0.0535 mg/L and an IC50 (µg/mL), pseudovirus neutralization [26] of 0.059 µg/mL. For the same substance, the IC50 (µg/ml), pseudovirus neutralization [26] was 0.09 µg/mL, the neutralization IC50 [27] was 0.891 mg/L and the IC50 (µg/ml), pseudovirus neutralization [28] was 0.08 µg/mL. The IC50 neutralization [28] was 0.161 mg/L.

Work on PGT-142 (4995_E20) (antibody) yielded a neutralization IC50 [15] of 0.125 mg/L, a neutralization IC50 [16] of 2.81 mg/L and a neutralization IC50 [29] greater than 50 mg/L. The neutralization IC50 [27] was 30.3 mg/L.

In the case of PGV04 (antibody), the IC50 (µg/mL), pseudovirus neutralization [14] is reported as 6.4 µg/mL, the IC50, pseudovirus neutralization [30] is reported as 0.553 mg/L and the neutralization IC50 [15] is reported as 0.065 mg/L. For the same substance, the neutralization IC50 [16] was 0.043 mg/L, the IC50 [22] was 0.014 mg/L and the IC50 (µg/mL), pseudovirus neutralization [26] was 1.29 µg/mL. The neutralization IC50 [29] was greater than 50 mg/L and the neutralization IC50 [27] was 0.352 mg/L.

In the case of PGT-121 (antibody), the IC50 (µg/mL), pseudovirus neutralization [14] is reported as greater than 50 µg/mL, the IC50 (µg/mL), pseudovirus neutralization [22] is reported as 0.003 µg/mL and the IC50 (µg/mL), pseudovirus neutralization [26] is reported as greater than 50 µg/mL. For the same substance, the IC50 neutralization [28] was 0.0063 mg/L and the IC50 (µg/mL), pseudovirus neutralization [31] was greater than 50 µg/mL.

Substance 4877_D15 (PGT-122) (antibody) has an IC50 [1] of 0.277 mg/L, an IC50, pseudovirus neutralization [2] of 0.011 mg/L and an IC50, pseudovirus neutralization [3] greater than 50 mg/L. The IC50 (µg/mL), pseudovirus neutralization [4] was 0.007 µg/mL, the IC50 (ug/ml), neutralizing activity [8] was 0.0727 µg/mL and the IC50 (µg/mL) neutralization [5] was greater than 50 µg/mL. The IC50, pseudovirus neutralization [11] was 0.01 mg/L, the IC50 (µg/mL) neutralization [6] was 32.6 µg/mL and the IC50 (µg/mL), pseudovirus neutralization [7] was greater than 50 µg/mL.

With 5345_I01 (PGT-137) (antibody) the IC50 [30] was greater than 50 mg/L, the IC50, single-round pseudovirus neutralization [32] was greater than 50 mg/L and the IC50, pseudovirus neutralization [33] was greater than 50 mg/L. It also gave an IC50, single-round pseudovirus neutralization [34] greater than 50 mg/L, a neutralization IC50 [22] of 0.148 mg/L and an IC50, pseudovirus neutralization [35] of 1.93 mg/L. For the same substance, the IC50, pseudovirus neutralization [11] was greater than 50 mg/L, the IC50 [36] was greater than 50 mg/L and the IC50 [37] was greater than 50 mg/L. The neutralization IC50 [38] was greater than 50 mg/L and the neutralization IC50 [31] was greater than 50 mg/L.
